Assay results as given in patent US10456446B2, “Use of human small leucine zipper protein in osteogenesis procedure” (Korea University Research and Business Foundation, priority 2013, dated 2019).

Key:
[1] = biological target: T1, HDAC3 (Homo sapiens, UniProt O15379); assay: GST pull-down of sLZIP with HDAC3 in 293T cells; format: binding
T1 construct: expressed in transfected cells; host or cells: 293T
Description: 293T cells were obtained and washed with cold PBS. The cells were re-suspended in an IP lysis buffer [25 mM of Tris-HCl (pH 7.4), 150 mM of NaCl, 1 mM of EDTA, 1% NP-40 and 5% glycerol, and a protease inhibitor]. A suspension was centrifuged at 16,000×g for 20 minutes at 4° C. Supernatants were collected and incubated with 0.5 μg of appropriate antibodies and 25 μl of protein A/G-agarose or a GST Sepharose 4B bead for 24 hours at 4° C. A protein complex was centrifuged at 1,000×g with a cold IP lysis buffer for 1 minute and washed five times. The final pellet was re-suspended in 50 μl of an SDS-sample buffer containing 5% β-mercaptoethanol and heated for 10 minutes at 100° C. A protein sample was isolated in SDS-PAGE (8 to 10%) and transferred to nitrocellulose membranes. Co-precipitated proteins were detected according to western blotting using specific antibodies.
For this purpose, 293T cells were transiently transfected with PPARγ2 (0.5 μg), β-galactosidase (0.1 μg), FABP4-Luc reporter genes (0.2 μg) and sLZIP (0.1 μg). […] A promoter activity was measured according to luciferase analysis. […] After the transfection, the cells were stimulated with or without 10 nM of RZD, and a promoter activity was measured (FIG. 4B). […] GFP-sLZIP expression constructs were expressed in C3H10T1/2 cells, rabbit anti-HDAC3 antibodies and Texas Red-labeled anti-rabbit antibodies were used and analysis was performed under a fluorescence microscope. […] A protein complex was analyzed in SDS-PAGE, and anti-GST and anti-Flag antibodies were used for immunoblotting (FIG. 4E). *, P<0.05; **, P<0.01
For this purpose, 293T cells were transfected with GST-PPARγ2 and Flag-sLZIP and were treated or not treated with 10 nM of RZD for 24 hours. […] A protein complex was analyzed in SDS-PAGE, and immunoblotted with anti-GST and anti-Flag antibodies. […] The cell lysates were GST pull-down analyzed (FIG. 5C). […] The cell lysates were GST pull-down analyzed (FIG. 5D). […] A protein complex was analyzed in SDS-PAGE, and then immunoblotted with anti-NCoR1 and anti-Flag antibodies (FIG. 5E). […]

[2] = test system: sLZIP TG mouse embryos; assay: Cartilage development, alcian blue staining of sLZIP TG mouse embryos on E12.5; format: in vivo; settings: E12.5, compared with wild type
Description: In order to generate human sLZIP transgenic (TG) mice, sLZIP genes were cloned into a pCMV-flag expression vector. The sLZIP TG mice were generated by Macrogen, Inc (Seoul, Korea). Transgenic founders were mated with wild type C57BL/6 mice to produce F1 heterozygotes. F1-F4 generations were genetically screened for transgenes at an age of 2 weeks old. The following two primers were used to amplify genomic DNA in order to identify wild type and TG mice: 5′-GGACGATGATGACAAGGACT-3′ (SEQ ID NO: 25) and 5′-GTCAGAGGAGTACATGCTGCT-3′(SEQ ID NO: 26).
When a bone is initially developed during an embryo, cartilage is formed and hardened to a bone according to a so-called ossification (or osteogenesis) process. In order to examine whether sLZIP-mediated osteogenesis is associated with cartilage development, an effect of sLZIP in chondrocyte differentiation was examined. For this purpose, ATDC5 cells were temporarily transfected with sLZIP at different contents (0.1 μg to 0.5 μg). Total RNA was extracted from the cells, and an mRNA expression level of a chondrocyte marker was measured using RT-PCR analysis (FIG. 8A) and real-time PCR (FIG. 8B). GAPDH was used as an internal control group. An experiment was repeated three times. […] Total RNA was extracted from the mature osteoclasts, and an mRNA expression level of an osteoclast marker was measured using real-time PCR (FIG. 8D). […]

T1 sequence (O15379 whole entry, species assumed): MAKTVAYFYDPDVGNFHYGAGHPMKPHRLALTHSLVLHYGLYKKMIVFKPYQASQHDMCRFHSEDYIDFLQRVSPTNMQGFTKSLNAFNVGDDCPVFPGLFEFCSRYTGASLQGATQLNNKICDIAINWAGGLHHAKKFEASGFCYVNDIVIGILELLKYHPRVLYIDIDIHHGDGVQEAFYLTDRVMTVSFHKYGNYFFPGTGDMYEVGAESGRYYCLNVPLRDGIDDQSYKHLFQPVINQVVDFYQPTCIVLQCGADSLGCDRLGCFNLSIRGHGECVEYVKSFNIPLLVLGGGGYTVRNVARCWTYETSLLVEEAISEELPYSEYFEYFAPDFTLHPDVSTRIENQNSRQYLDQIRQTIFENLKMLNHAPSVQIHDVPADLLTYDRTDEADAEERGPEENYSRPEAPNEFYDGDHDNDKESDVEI

interaction with HDAC3 ([1]; 10 nM RZD for 24 hours): remained as being interacted with sLZIP | interaction with HDAC3 ([1]; GST-HDAC3 and Flag-sLZIP, 293T cells, GST pull-down): interacted with HDAC3 | interaction with HDAC3 in a PPARγ2 corepressor complex ([1]; no RZD treated): interacted with HDAC3
B1: sLZIP: human small leucine-zipper protein, isoform of LZIP, 354 amino acids, no transmembrane domain, GenBank FJ263669, SEQ ID NO: 1 (protein, listed as Homo sapiens)
chain: MELELDAGDQDLLAFLLEESGDLGTAPDEAVRAPLDWALPLSEVPSDWEVDDLLCSLLSPPASLNILSSSNPCLVHHDHTYSLPRETVSMDLESESCRKEGTQMTPQHMEELAEQEIARLVLTDEEKSLLEKEGLILPETLPLTKTEEQILKRVRRKIRNKRSAQESRRKKKVYVGGLESRVLKYTAQNMELQNKVQLLEEQNLSLLDQLRKLQAMVIEISNKTSSSSMYSSDTRGSLPAEHGVLSRQLRALPSEDPYQLELPALQSEVPKDSTHQWLDGSDCVLQAPGNTSCLLHYMPQAPSAEPPLEWPFPDLFSEPLCRGPILPLQANLTRKGGWLPTGSPSVILQDRYSG
cartilage development of leg and tail [2]: no difference
